This is an account of results in patent US20100003237.

Histidine (His)-tagged purified recombinant human cathepsin-L (R&D Systems, Cat# 952-CY), sequence (chain, as listed by the source): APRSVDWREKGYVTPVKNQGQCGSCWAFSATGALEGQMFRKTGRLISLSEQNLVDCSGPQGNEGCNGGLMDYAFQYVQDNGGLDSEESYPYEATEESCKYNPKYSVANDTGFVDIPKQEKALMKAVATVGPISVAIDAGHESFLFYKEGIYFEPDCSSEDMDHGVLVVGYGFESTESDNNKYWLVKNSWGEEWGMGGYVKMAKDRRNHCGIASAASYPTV
cathepsin D (R&D systems, activated), sequence (chain, as listed by the source): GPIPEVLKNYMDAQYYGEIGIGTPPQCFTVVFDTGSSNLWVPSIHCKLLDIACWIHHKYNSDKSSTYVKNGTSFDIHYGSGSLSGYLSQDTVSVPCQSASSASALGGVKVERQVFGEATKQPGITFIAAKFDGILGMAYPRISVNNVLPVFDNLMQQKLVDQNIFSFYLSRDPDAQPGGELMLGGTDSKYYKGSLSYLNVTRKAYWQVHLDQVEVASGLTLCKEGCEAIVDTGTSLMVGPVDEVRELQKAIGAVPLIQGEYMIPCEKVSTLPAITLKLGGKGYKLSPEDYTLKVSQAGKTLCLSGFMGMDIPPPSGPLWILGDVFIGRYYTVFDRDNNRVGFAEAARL

In this data set the target is Soluble rat tail collagen Type I (UniProt P02454).
On to “Histidine (His)-tagged purified recombinant human cathepsin-L (R&D Systems, Cat# 952-CY)”, for which the “degradation of soluble rat tail collagen Type I (1 hour at 37° C., SDS-Page gels, Coomassie Blue staining)” value (from here on “degradation”) is listed as “cathepsin-L was the only enzyme that was active at pH 5.0, but not at pH 8.0”.

For cathepsin B (R&D systems, activated), the “degradation” value was “Cathepsins B, D and S showed some slight degradation of rat collagen at the manufacture specified pH and no degradation of rat collagen at pH 8.0”.

For the substance Bacterial collagenase (Sigma Chemicals), the “degradation” value was “bacterial collagenase degraded rat collagen at both pH 5.0 and pH 8.0”.

Turning to cathepsin D (R&D systems, activated), the “degradation” value is “Cathepsins B, D and S showed some slight degradation of rat collagen at the manufacture specified pH and no degradation of rat collagen at pH 8.0”.
